Assay results taken from US20190153113A1, “CD39 VASCULAR ISOFORM TARGETING AGENTS” (INNATE PHARMA, priority 2015, published 2019).

Tests used:
[1] = target: T1, CD39 mutant 15 (K87A, E100A, D107A) (human, UniProt P49961 1-510); assay: flow cytometry, HEK293T cells transfected with mutant 15
T1 construct: Transfected in HEK293T cells
T1 chain: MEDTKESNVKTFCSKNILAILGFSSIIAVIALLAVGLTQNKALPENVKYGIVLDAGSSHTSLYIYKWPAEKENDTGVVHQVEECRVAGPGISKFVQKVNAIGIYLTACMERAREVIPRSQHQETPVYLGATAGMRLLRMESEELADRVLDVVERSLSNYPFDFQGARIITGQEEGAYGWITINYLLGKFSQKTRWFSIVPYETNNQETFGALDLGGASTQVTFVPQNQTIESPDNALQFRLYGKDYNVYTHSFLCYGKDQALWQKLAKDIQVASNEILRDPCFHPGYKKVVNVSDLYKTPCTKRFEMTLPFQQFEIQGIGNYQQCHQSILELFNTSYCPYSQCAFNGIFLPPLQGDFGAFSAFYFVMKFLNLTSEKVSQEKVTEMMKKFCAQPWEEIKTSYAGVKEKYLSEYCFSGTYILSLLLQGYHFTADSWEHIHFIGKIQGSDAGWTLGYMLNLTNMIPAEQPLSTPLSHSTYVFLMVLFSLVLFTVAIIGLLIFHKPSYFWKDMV

[2] = target: T2, Recombinant human CD39-L3 (NTPDase3, ENTPD3) (human, UniProt O75355 44-485, limits assumed); assay: ELISA on coated RechuCD39-L3, OD 450 nm [top panel CHS2-I-391]
T2 construct: Coated in ELISA
T2 sequence: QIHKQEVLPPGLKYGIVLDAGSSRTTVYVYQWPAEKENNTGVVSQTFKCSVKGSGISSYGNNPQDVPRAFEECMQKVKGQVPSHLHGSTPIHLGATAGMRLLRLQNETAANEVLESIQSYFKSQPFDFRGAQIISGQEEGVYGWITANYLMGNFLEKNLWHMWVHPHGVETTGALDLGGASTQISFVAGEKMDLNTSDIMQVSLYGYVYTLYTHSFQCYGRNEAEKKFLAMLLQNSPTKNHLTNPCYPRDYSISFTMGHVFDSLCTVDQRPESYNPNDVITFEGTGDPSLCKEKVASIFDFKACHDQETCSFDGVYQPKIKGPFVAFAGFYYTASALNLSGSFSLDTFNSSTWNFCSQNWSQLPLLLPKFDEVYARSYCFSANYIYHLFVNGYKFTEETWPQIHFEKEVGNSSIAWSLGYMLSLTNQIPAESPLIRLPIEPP
Protocol: Wells were washed in TBS Tween 20, and further saturated 2H at RT in TBS Blocking buffer. Dose range concentration of primary antibody was incubated in TBS blocking buffer for 2h at RT. Wells were washed in TBS Tween 20. […] Optical density was measured on Enspire at OD=450.

- binding result [1]: binds
- binding result [2]: no binding (tested: 50 ug/ml)
B1: Antibody I-391, Fc silent recombinant chimeric human IgG1 with heavy chain N297Q mutation (antibody, V domains shown)
VH: QIQLVQSGPELKKPGETVKISCKASGYTFRNYGMNWVKQAPGKGLKWMGWINTYTGEPTYADDFKGRFAFSLATSASTAYLQISNLKNEDTATYFCARKAYYGSNYYFDYWGQGTTLTVSS
VL: DIVMTQSHKFMSTSVGDRVSITCKASQDVSTAVAWYQQKPGQSPKLLIYSASYRYTGVPDRFTGSGSGTDFTFTISTVQAEDLAVYYCQQHYTTPPYTFGGGTKLEIKR
